T1: C-reactive protein (CRP) (human, UniProt P02741 19-224)
T1 sequence: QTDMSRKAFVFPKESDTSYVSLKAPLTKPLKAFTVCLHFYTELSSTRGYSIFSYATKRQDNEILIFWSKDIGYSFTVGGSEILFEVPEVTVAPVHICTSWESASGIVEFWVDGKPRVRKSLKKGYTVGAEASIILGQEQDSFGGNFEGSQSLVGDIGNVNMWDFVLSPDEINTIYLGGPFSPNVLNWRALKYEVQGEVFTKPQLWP

B1: sP-selectin aptamer (ssRNA)
RNA: ACGCUCAACGAGCCAGGAACAUCGACGUCAGCAAACGCGAGCGCAACCAGUAACACC
modifications: thiol (position not given) for the electrode; no 2' modification stated

Key:
C-reactive protein (CRP) = target: T1, C-reactive protein (CRP); test: electrochemical impedance spectroscopy; aptamer on Au NP/CNT electrode; linear 0.1-10^4 ug/ml, LOD 0.023 ug/ml; SPR (Biacore 2000, SA chip): 10 mM Hepes, 150 mM NaCl, pH 7.4, 0.005% Tween 20, 25 C; EIS: 45 min incubation (plasma workflow), PBS pH 7.4 washes, 5 mM ferri/ferrocyanide probe; settings: protein: commercial; chain copies: 5
[1] = target: soluble P-selectin (sP-selectin) (human, UniProt P16109 42-771); test: electrochemical impedance spectroscopy; aptamer on Au NP/CNT electrode; linear 0.1-10^4 ng/ml, LOD 0.019 ng/ml; SPR (Biacore 2000, SA chip): 10 mM Hepes, 150 mM NaCl, pH 7.4, 0.005% Tween 20, 25 C; EIS: 45 min incubation (plasma workflow), PBS pH 7.4 washes, 5 mM ferri/ferrocyanide probe; settings: protein: commercial
Chain of soluble P-selectin (sP-selectin) (P16109 42-771): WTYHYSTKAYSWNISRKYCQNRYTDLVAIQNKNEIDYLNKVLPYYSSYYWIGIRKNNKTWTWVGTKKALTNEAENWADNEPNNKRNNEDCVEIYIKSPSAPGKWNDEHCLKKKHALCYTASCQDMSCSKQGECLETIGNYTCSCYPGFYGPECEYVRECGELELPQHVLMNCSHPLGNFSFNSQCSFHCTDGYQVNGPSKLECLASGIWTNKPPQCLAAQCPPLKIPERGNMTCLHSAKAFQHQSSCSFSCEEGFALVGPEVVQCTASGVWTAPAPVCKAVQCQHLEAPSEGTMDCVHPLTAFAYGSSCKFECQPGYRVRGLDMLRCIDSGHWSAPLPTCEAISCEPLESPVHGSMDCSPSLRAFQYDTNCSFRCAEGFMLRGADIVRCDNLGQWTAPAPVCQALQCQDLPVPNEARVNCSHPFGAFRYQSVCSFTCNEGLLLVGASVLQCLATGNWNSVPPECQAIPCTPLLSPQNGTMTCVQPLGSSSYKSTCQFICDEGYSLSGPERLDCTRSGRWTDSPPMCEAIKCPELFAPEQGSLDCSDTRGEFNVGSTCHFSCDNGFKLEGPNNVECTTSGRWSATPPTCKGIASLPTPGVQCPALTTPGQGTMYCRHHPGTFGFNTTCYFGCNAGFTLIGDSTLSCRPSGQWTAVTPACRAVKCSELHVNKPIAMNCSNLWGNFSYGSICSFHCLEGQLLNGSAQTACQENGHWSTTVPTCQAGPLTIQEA

Binder	binding result (C-reactive protein (CRP))	binding result [1]
GCCTGTAAGGTGGTCGGTGTGGCGAGTGTGTTAGGAGAGATTGC (ssDNA, thiol (position not given) for the electrode) [CRP aptamer]	binds	–
B1	–	binds

Source: paper PMC11633740, “Rapid prediction of acute thrombosis via nanoengineered immunosensors with unsupervised clustering for multiple circulating biomarkers”
